{"source": "patent US20140315811A1", "about": "“OPHTHALMIC PREPARATIONS BASED ON PACAP (PITUITARY ADENYLATE CYCLASE ACTIVATING POLYPEPTIDE) WHICH RESTORE THE NORMAL VISUAL FUNCTION IN EARLY GLAUCOMA” (HMFRA HUNGARY LIMITED LIABILITY COMPANY, priority 2011, published 2014)", "key": {"[1]": {"system": "cAMP levels in the retina", "experiment": "Determination of cAMP levels in the retina after topical application of PACAP 38 (Cyclic AMP EIA kit, retinal homogenate)", "type": "in vivo, mice (C57BL-6J)", "details": "topical application into conjunctival sac, PACAP 50 μM (0.226 μg/μl) in saline (0.9% NaCl) and acetic acid (5%); 6 hours after application; Student's t-test p<0.05", "experimental": "• The preparation Based on Saline Solution (0.9% NaCl) Containing PACAP 38 was Used\nThe test was conducted on mice (C57BL-6J, Harlan, Italy); PACAP 38 was applied topically, instilled into the conjunctival sac of one eye, while the other eye, used as control, was treated with the saline solution (“placebo”) only. • Determination of cAMP Levels in the Retina\nThe animals were sacrificed 6 hours after the topical application, when deep anaesthesia had been induced by an intraperitoneal urethane injection (20%). The eye was then removed, and the cAMP level measured in the retinal homogenate of the eye treated with PACAP and of the other eye treated with saline only (control eye). The measurements were performed by cyclic AMP assay using the Cyclic AMP EIA KIT ([…]). The results shown in the chart in FIG. 1 were obtained with a topical application of PACAP (50 μM; 0.226 μg/μl) in saline solution (0.9% NaCl) and acetic acid (5%), and are expressed as relative values (%) compared with the control eye."}, "[2]": {"system": "DBA/2J mouse (retinal ganglion cells / inner nuclear layer response)", "experiment": "Pattern electroretinogram (P-ERG) after repeated topical application in murine spontaneous glaucoma model", "type": "in vivo", "excerpt": "The PACAP receptor, called PAC1, is known to be expressed in the ganglion cells (Seki et al. 1997; 2000; D'Agata and Cavallaro 1998; Hannibal and Fahrenkrug 2004; Kubrusly et al. 2005). The activity of PACAP was verified in the most common experimental model of spontaneous glaucoma, a double mutant mouse called DBA/2J (John et al., 1998; Chang et al., 1999). The DBA/2J mouse presents homozygous mutations of two separate genes; the first is […] (Tyrpl−/−) coding for a melanosome protein, and the second is a membrane glycoprotein (Gpnmb−/−); pigment granules accumulate in the trabecular meshwork, similar to the form of pigmentary glaucoma, with consequent trabecular degeneration, atrophy of the iris and progressive impairment of the outflow of aqueous humor, which leads to an increase in IOP.\nThis mouse is characterised by a progressive increase in IOP, with progressive loss of the retinal response to structured visual stimuli (which may be lattices formed by pale strips alternating with dark strips, or chess pieces, with different contrasts and sizes) which depends on the inner nuclear layer/ganglion cells; in humans and in the animal model, this retinal response is called the pattern electroretinogram (P-ERG; Domenici et al.,1991; Ventura and Porciatti, 2006; Falsini et al., 2008). The dysfunction of the ganglion cells is followed at a late stage by degeneration of the ganglion cells, with a reduction in their density and progressive atrophy of the optic nerve (Ventura et al., 2006; Buckingham et al., 2008). […] At the age of 11 months the IOP rises further; a progression of the disorder similar to that which takes place in human patients can therefore be deduced. […]"}, "[3]": {"system": "DBA/2J mouse (photoreceptors and outer nuclear layer response to light)", "experiment": "Flash ERG after repeated topical application in murine spontaneous glaucoma model", "type": "in vivo", "details": "PACAP 50 μM in saline, two weeks, one treatment every 48 h", "excerpt": "The other type of electroretinogram, flash ERG, which measures the response of the photoreceptors and the outer nuclear layer to light, appears wholly intact in glaucoma, further supporting the theory that this is a type of disorder affecting the inner nuclear layer, namely the ganglion cells, at least at the early stage."}}, "data": [{"substance": "Pituitary Adenylate Cyclase Activating Polypeptide [PACAP]", "values": [{"measurement": "cAMP level in retinal homogenate, treated eye compared with control eye", "setting": "[1]", "value": "significantly higher"}, {"measurement": "Effectiveness on P-ERG across the three concentrations tested", "setting": "[2]; 500 nM (0.0022 μg/μl), 1 μM (0.0045 μg/μl), 50 μM (0.226 μg/μl), topical, every 48 hours for two weeks, 8-month-old mice", "value": "only the highest concentration (50 μM, 0.226 μg/μl) proved effective"}, {"measurement": "Effect on alteration of P-ERG (treated eye vs control eye)", "setting": "[2]; PACAP 50 μM (0.226 μg/μl) in saline, topical, one application every 48 hours for 2 weeks between 8 and 8.5 months of age, p<0.05", "value": "prevented the alteration of P-ERG"}, {"measurement": "Minimal effective concentration able to exert protective effects on the ganglion cell function", "setting": "[2]; repeated topical treatment, DBA/2J mouse, early stage glaucoma", "value": 0.226, "unit": "µg/µL"}, {"measurement": "Flash ERG of the treated eye (response of photoreceptors and outer nuclear layer to light)", "setting": "[3]", "value": "normal flash ERG"}]}]}
